Source: patent US20130041017A1, “SIRNA-BASED THERAPY OF FIBRODYPLASIA OSSIFICANS PROGRESSIVA (FOP)” (The Trustees of the University of Pennsylvania, published 2013)

Molecular target: T1, ACVR1 Arg206His mutant (R206H; c.617G>A), mutated Activin A type I receptor protein (human)
T1 chain: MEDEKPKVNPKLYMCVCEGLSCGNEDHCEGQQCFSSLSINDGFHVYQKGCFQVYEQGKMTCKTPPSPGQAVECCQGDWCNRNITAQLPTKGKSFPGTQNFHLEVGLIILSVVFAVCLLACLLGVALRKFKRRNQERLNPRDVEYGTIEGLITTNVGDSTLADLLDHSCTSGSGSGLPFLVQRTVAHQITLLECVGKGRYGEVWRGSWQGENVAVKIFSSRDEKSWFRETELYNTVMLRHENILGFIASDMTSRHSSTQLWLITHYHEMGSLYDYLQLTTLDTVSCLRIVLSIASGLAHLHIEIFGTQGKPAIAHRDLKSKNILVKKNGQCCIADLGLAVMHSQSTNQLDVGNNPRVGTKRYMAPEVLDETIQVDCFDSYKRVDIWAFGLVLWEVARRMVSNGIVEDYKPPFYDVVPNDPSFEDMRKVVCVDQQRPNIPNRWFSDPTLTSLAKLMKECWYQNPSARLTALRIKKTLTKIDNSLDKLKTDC
Assay: cell-based or functional assay

phosphorylated Smad1/5/8 (pSmad1/5/8) by immunoblotting: ~2 fold
B1: Human recombinant BMP4 (ligand)
chain: SPKHHSQRARKKNKNCRRHSLYVDFSDVGWNDWIVAPPGYQAFYCHGDCPFPLADHLNSTNHAIVQTLVNSVNSSIPKACCVPTELSAISMLYLDEYDKVVLKNYQEMVVEGCGCR
